A short description of this data set: soluble on expression in E. coli; label from the status in PepcDB or PDB records.
As to “NENNTVVAETKTSTASETSEPKQVISSKQQLASLYLQAKQSLFKQRALSATMYGLSQKDIGQVISSDMEFYSPENEKQLRAELLSISNTIAGIKLDDADITTKNNQQVMAGLTRYFAGEPNFNIGYIDTWMGLSPFIVNQINGPLIDIPRVMQNDQPITTEKEALDYIVRLGQFDKLAATIIEKQTADAAQNWLPSKVTLQGAIKYLKGFTSGSAEQHPFVNVFREKIEKVDSLTTEQKQSLITQVIAKVSQVVYPAYQSVEKASEQLLSEARSESGIWAQPKGSVYYQDAIKQLGDSELSPTQIHQIGLDEVARISGVMNEILLAQGYTKGTVGERMVALNEEPRFLYEDSIAGREELLSDINGYITEVTAKMAPVFRTTPSYQVEVKSFPVEVQDGAPGGQYTSPAVDGSKPGIYWINLRDMKANPKFGLKTLTYHEANPGHHWQIALNLDQAELPFLRRIAPYNAYTEGWALYSEQVAYELGMYENDPFGDLGRLQAELFRAVRLVVDTGLHDKRWTREQAISYMSEQTGTAESDVVAEIERYMAWPGQALGYKLGMLKILSLREQAKARLGDKFDLAEFHDVVLLNGAVPMAVLSRNVNHWLDNK”, the “soluble on expression in E. coli” value is recorded as “soluble”.

Consider “NEVESGYYFTTLDHYIYEAEEANLGPGVVVVERQYIQDRIPSWTGPGFVRVPEGAYLEFFIDNIPYSMEYEILIRYEPQLPDHWEKAVITVQRPGKIPASSRCGNTVPDDDNQVVSLSPGSRYVVLPRPVCFEKGMNYTVRLELPQYTASGSDVESPYTFIDSLVLMPYCKSLDIFTVGGSGDGEVTNSAWETFQRYRCLENSRSVVKTPMTDVCRNIIFSISALIHQTGL”, for which the “soluble on expression in E. coli” value is reported as “soluble”.

For “NGQSDVKHIGILQYVEHPSLTATRKGFIKELAKEGYKDGKNIKIEYKNAQGDQSNIQSISEKLIKDNKLVLGIATPAAQSLTTVSTETPILFTAVTDPVSAELVKSMKKPEGLATGTSDMSPIKKQVSLLRKVMPKVKRVGIMYTTSERNSEVQVKQAKKIFQEAGIKTSVKGISSTNDVQDTAKSLMSKTEVIFVPTDNIIASSVTLLGNLSKELKVPVVGGSADMVPSGLLFSYGADYEALGRQTARQAVKILKGKDVAKVPSEYPQNLKVVVNEDMAKELGIDVSSIK”, the “soluble on expression in E. coli” value was “not soluble”.

As to “NIDGYNELTVGELTGPTTIETFPTPDLPGGLAGGVSWGPDAERFAVSVTGRTVNTNVFVVETETGESEQWTAASTAGIPQETLIEPEVVRFDSFDGREIPALFSPPDGAADGAGADGDTPVIVDIHGGPESQRRPSFSGLTQYFLSRGYAVFEPNVRGSTGYGKAYTHLDDVEKRMDSVKDLRAGVDWLHNHPAVDPDRIVAMGGSYGGFMVLAALTEYPDLWAAGVDVVGIANFVTFLENTGDWRRELREAEYGSLDTDREFLESISPINNVDRINAPLFVLHGANDPRVPVGEAEQIAEQAAEQGVPVEKLVFDDEGHGISKRENRIEAYTAVVEFLDDHV”, the “soluble on expression in E. coli” value is “not soluble”.

With “NIVLTQSPASLAVSLGQRATISCRANESVYSYGDSFMHWYQQKPGQPPKLLIYLASNLASGVPARFSGSGSRTDFTLTIDPVETDDAATYYCQQNNEDPWTFGGGTKLEIKRGDAAPTVSIFPPSSEQLTSGGASVVCFLNNFYPKDANVAWKIDGSERQNGVLNSWTDQDSKDSTYSMSSTLTLTKDEYERHNSYTCEATHKTSTSPIVKSFNR”, the “soluble on expression in E. coli” value is on record as “soluble”.

In the case of “NIYLDKRITKQATQFLEAARAIDSREHLISGYRSVAYQEKLFNSYVTQEMTSNPNLTRGQAEKLVKTYSQPAGASEHQTGLAMDMSTVDSLNESDPRVVSQLKKIAPQYGFVLRFPDGKTAETGVGYEDWHYRYVGV”, the “soluble on expression in E. coli” value was “not soluble”.

“NKDWSYRIGFNLYDSQSEITKYNNETNLLGDKIYRKGMKMGEIWGYVTDRFYTEDDFNADGTLKPGIPIPKGAGKVFPGDVLYKNFDDDTETIWSGEGTADNPGDQRIIGNSTPRFHYGITAGISWKGLDLSIFLRGVGKRDYWRTDQIAWPTGGWGSLFKETLNFWTPTNTNAYYPRVYSNDGVNTSYNHWKQSKYLANASYLKLQNITLSYTLPKVWSQRLYFDDVKVFFSGENLYTWDHLPEGLETDMLSKGAWEYPFMRKFSFGINVTF”: the “soluble on expression in E. coli” value is recorded as “not soluble”.

Consider “NKLAQKYDHQREQELREWIEGVTGRRIGNNFMDGLKDGIILCEFINKLQPGSVKKINESTQNWHQLENIGNFIKAITKYGVKPHDIFEANDLFENTNHTQVQSTLLALASMAKTKGNKVNVGV”, for which the “soluble on expression in E. coli” value is given as “soluble”.

As to “NKSDMNHFMQVLRYLDPIHYLKATNDNGFPMSRMYSNQTVTIGGTITQPLPFKPDGENNVKLQRVVAKLDVNIVEGVENLQKIELCNANVHYRLVPNQSEPIQFYGPVELRRVGTTNQWLGYMPEAIVESTKWWGNTGNAENKPINFFRLTTRGGLVYDVPIITHEGAIPGGQYLPFAKGLLADKPSYTVYRNRHYIYRIKTLPDKIEVKYSICDWNIVTNDTYMGYGYNVGVDEQGNVTITNTMQNCDPHVVRLVAKNGAYFGSQPTDTSVEFAELANGASQTFKVNKDAVAVGSAYLEVYYNPDPNATGVVPDKVFIKK”, the “soluble on expression in E. coli” value is recorded as “not soluble”.

“NLKVEFYNSNPSDTTNSINPQFKVTNTGSSAIDLSKLTLRYYYTVDGQKDQTFWCDHAAIIGSNGSYNGITSNVKGTFVKMSSSTNNADTYLEISFTGGTLEPGAHVQIQGRFAKNDWSNYTQSNDYSFKSASQFVEWDQVTAYLNGVLVWGKEP”: the “soluble on expression in E. coli” value is “soluble”.

For “NNMHHLAVVGARDSTSYTQQSLEFLLSNDKSKYLTIVSGLAQGADAMAHQIALKYNLPTIAVLAFGHQTHYPKSTLALRNKIEEKGLVISEYPPHTPIAKYRFPERNRIISGLSKGVLITEAKEQSGSHITIDFALEQNRNVYVLPGSMFNPMTKGNLLRIQEGAKVVLNANDIFEDYYI”, the “soluble on expression in E. coli” value is given as “not soluble”.

For “NTLTVKMNDALSSGTGENIGEITVSETPYGLLFTPHLNGLTPGIHGFHVHTNPSCMPGMKDGKEVPALMAGGHLDPEKTGKHLGPYNDKGHLGDLPGLVVNADGTATYPLLAPRLKSLSELKGHSLMIHKGGDNYSDKPAPLGGGGARFACGVIEK”, the “soluble on expression in E. coli” value is “soluble”.

As to “PDLLIELFSEEIPARMQARAREDLKKLVTDGLVEAGLTYASAGAFSTPRRLVLSVEGLSAESPTLREERKGPKADAPAAAIEGFLRSTGLTRDQLETREDKKGAVLFAVVEKPGRRAPDIVAEVLERTIRTFPWPKSMRWGTGSLRWVRPLHSILCLLSDEAGSQVVPVTVDQVTAVNTTEGHRFMAPGRFAVTGFDDYRAKLQRALVMLDAAEREQAIWHEATTQAFAQGLEVVPDAGLLAEVAGLVEWPVVLMGPIGEEFLGLPPEVLQTSMREHQKFFSVRNPATGRIEKFVTVANRETADHGATILKGNAKVLSARLSDASFFWENDRRTVQTVGLEGMAAGLAHVTFHNKLGSQADRIARIEALAREIAPLVGASPDLAAEAARVAKADLQSAMVGEFPELQGTMGSYYARAAGLPEPVALACKAHYQPLGPSDAVPTDPVSVAVALADKIDTLTGFWAIDEKPTGSKDPFALRRAALGVVRLLLMNGLRLSLLNQVRFAHGCLAEQFNSRFNFFVQIREEPKEAVNIGVGHRYPEVVSDQCTSILMGYVENPVESVASGKFTIDGRAVGTKP”, the “soluble on expression in E. coli” value was “not soluble”.

Take “PDPVRLEIFKNLYQFIAEQMGIVLQNTAASVNIKERLDFSCAIFDSSGLLVANAPHIPVHLGSMSESVCSLINDKGETIKPGNVYLSNNPYNGGTHLPDVTAITPVFPETQENPPTPLFYVASRGHQADIGGITPGSMPPHSTTVEEEGILFDNFLLVEAGNFQEIQVRNLLANHLYPARNPDQNIADFQAQIAANERGVKELHKMVAQYGLPIVQVYMKFVQDNAGESVRRAIDVLKDGTFIYEMDGGAKIQVKVTINREKRSAEIDFTGTSEQLNSNFNAPKAVTQAAVLYVFRTLVDDNIPLNAGCLKPLDIIVPEGCMLNPTYPSAVVAGNVETSQTIVDALYGALSVMAASQGTMNNFTFGSDRYQYYETICGGSGAGSNFDGTDAVHTHMTNSLLTDPEVLETRYPVLVESFSLRSDSGGKGKYSGGNGVVRRIRFLEPMTANILSGHRLVPPFGLNGGEAGQVGHNRIERHDGTQENLDSTATAEMQPGDVFVIETPGGGGFG”: the “soluble on expression in E. coli” value is listed as “not soluble”.

As to “PEIKDHLIMVGFGFSGKTISKAAKAAGIPYIILETNPDIVKQEKTKGERIQYGDATFGAVQEHAGIRNARVLITGISDSVATRKIVEKAKELNPNIYVIAKVRNLQEMKHLHHLGADEIIPEEYETSVEIFVRLLEKYLV”, the “soluble on expression in E. coli” value was “not soluble”.

“PEMKIVMTSTTEVMEEVLVVAYGTAKKSAFTGSAKMIHTEQITKRPVTNVIESLSGQVAGLQMTMTNGQPGETPSILIRGISSMSAKTDPLIVLDGMPYEGGWNNINPADVESISVLKDAASTALYGARGANGVIIITTKSAKAGD”: the “soluble on expression in E. coli” value is given as “not soluble”.

Regarding “PEQEEEILGSDDDEQEDPNDYCKGGYHLVKIGDLFNGRYHVIRKLGWGHFSTVWLSWDIQGKKFVAMKVVKSAEHYTETALDEIRLLKSVRNSDPNDPNREMVVQLLDDFKISGVNGTHICMVFEVLGHHLLKWIIKSNYQGLPLPCVKKIIQQVLQGLDYLHTKCRIIHTDIKPENILLSVNEQYIRRLAAEATEWQRSGAPPPSGSAVSTAPATAGNFLVNPLEPKNAEKLKVKIADLGNACWVHKHFTEDIQTRQYRSLEVLIGSGYNTPADIWSTACMAFELATGDYLFEPHSGEEYTRDEDHIALIIELLGKVPRKLIVAGKYSKEFFTKKGDLKHITKLKPWGLFEVLVEKYEWSQEEAAGFTDFLLPMLELIPEKRATAAECLRHPWLNS”, the “soluble on expression in E. coli” value is reported as “soluble”.

Regarding “PGRLHNAIVRPRVLDLLQHATCYKLVLFRSPAGYGKTTMAAQWLADKPNLGWYSIDDSDNDPFRFMNYLLQAINKATHN”, the “soluble on expression in E. coli” value is “not soluble”.

Turning to “PHFRGPVRKSTSIDTGPTESPASLKRVASPAAKPAIPGEEFIAMYTYESSEQGDLTFQQGDVIVVTKKDGDWWTGTGGDKSGVFPSNYVRLKDSEGSGTAGKTGSLGKKPEIAQVIASYAATGPEQLTLAPGQLILIRKKNPGGWWEGELQARGKKRQIGWFPANYVKLLSPGTSKITPTELPKTAVQPAVCQVIGMYDYTAQNDDELAFSKGQIINVLNKEDPDWWKGEVSGQVGLFPSNYVKLTTDMDPSQQWCSDLHLLDMLTPTERKRQGYIHELIVTEENYVNDLQLVTEIFQKPLTESELLTEKEVAMIFVNWKELIMCNIKLLKALRVRKKMSGEKMPVKMIGDILSAQLPHMQPYIRFCSCQLNGAALIQQKTDEAPDFKEFVKRLAMDPRCKGMPLSSFILKPMQRVTRYPLIIKNILENTPENHPDHSHLKHALEKAEELCSQVNEGVREKENSDRLEWIQAHVQCEGLSEQLVFNSVTNCLGPRKFLHSGKLYKAKSNKELYGFLFNDFLLLTQITKPLGSSGTDKVFSPKSNLQYKMYKTPIFLNEVLVKLPTDPSGDEPIFHISHIDRVYTLRAESINERTAWVQKIKAASELYIETEKKKREKAYLVRSQRATGIGRLMVNVVEGIELKPCRSHGKSNPYCEVTMGSQCHITKTIQDTLNPKWNSNCQFFIRDLEQEVLCITVFERDQLSADDFLGRTEIRVADIKKDQGSKGPVTKCLLLHEVPTGEIVVRLDLQLFDEP”, the “soluble on expression in E. coli” value is on record as “soluble”.

The record behind these values is the DeepSol protein solubility set.
